How the values were obtained:
Human TOPIB = target: T1, Human TOPIB (Homo sapiens, UniProt P11387); test: plasmid DNA relaxation assay with commercial human TOPIB, […] drug (Fig. S3C); type: biochemical
T1 construct: gene TOP1
T1 sequence (P11387 2-765): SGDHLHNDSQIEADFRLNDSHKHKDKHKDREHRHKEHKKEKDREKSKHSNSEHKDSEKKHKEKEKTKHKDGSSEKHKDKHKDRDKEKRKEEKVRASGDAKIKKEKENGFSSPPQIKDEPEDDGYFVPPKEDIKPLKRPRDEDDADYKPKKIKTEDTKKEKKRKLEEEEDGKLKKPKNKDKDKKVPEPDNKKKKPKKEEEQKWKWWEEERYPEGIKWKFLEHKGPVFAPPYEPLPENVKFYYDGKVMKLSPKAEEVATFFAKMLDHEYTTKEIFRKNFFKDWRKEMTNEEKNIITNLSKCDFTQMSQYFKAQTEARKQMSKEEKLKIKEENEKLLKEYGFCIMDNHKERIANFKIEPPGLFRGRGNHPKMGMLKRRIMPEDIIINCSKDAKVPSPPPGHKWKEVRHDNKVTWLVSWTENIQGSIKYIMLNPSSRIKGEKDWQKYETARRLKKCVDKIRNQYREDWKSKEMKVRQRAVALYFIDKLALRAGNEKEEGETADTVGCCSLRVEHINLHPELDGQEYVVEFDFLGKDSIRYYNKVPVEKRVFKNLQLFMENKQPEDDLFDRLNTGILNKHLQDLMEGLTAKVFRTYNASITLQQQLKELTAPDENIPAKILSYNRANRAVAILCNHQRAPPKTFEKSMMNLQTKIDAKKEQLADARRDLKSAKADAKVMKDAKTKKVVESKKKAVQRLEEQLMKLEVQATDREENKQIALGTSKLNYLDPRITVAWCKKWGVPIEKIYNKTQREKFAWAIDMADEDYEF

[1] = target: T2, LdTOPIA (Leishmania donovani DNA topoisomerase IA) (Leishmania donovani, UniProt A0A3S7WW83); test: plasmid DNA relaxation assay with purified LdTOPIA ([…] drug), agarose gel; type: biochemical
T2 construct: gene LdCL_210006600; full length, 7xHis-LdTOPIA-6xHis (809 aa), expressed in L. tarentolae LtT7TR
T2 sequence (A0A3S7WW83 1-809): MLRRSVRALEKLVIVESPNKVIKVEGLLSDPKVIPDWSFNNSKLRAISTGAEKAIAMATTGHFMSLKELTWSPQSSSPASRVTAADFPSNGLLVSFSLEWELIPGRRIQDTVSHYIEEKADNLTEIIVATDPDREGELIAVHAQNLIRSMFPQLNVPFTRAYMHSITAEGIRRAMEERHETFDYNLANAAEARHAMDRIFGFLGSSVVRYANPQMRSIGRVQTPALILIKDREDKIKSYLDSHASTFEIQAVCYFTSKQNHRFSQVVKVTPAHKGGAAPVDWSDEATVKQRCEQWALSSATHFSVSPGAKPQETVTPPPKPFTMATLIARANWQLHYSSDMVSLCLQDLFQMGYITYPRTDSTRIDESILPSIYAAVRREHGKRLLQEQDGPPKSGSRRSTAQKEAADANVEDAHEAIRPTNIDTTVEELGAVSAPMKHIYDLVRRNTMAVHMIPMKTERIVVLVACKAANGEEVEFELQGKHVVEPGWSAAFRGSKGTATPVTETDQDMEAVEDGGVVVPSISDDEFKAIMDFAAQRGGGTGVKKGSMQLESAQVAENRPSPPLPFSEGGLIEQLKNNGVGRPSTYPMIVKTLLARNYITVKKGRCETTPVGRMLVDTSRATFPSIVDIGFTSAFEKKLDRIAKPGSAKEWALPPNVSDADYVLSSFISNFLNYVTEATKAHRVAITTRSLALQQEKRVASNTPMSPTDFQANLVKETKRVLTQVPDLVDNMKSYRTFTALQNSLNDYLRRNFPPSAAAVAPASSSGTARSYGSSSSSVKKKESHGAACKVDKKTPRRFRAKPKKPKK

[2] = target: T3, LdTOPIA (DNA topoisomerase IA) (Leishmania donovani DD8, UniProt A0A3S7WW83 1-809); test: fluorescence anisotropy; 50 mM Tris pH 7.5, 100 mM NaCl, 0.5 mM DTT, 0.5 mM EDTA, 5% glycerol, 15 min, 25 °C (EMSA gel at 4 °C); conditions: protein: recombinant; tags: N-term 7xHis, C-term 6xHis; label: 5' FAM on RNA strand; blunt
T3 sequence: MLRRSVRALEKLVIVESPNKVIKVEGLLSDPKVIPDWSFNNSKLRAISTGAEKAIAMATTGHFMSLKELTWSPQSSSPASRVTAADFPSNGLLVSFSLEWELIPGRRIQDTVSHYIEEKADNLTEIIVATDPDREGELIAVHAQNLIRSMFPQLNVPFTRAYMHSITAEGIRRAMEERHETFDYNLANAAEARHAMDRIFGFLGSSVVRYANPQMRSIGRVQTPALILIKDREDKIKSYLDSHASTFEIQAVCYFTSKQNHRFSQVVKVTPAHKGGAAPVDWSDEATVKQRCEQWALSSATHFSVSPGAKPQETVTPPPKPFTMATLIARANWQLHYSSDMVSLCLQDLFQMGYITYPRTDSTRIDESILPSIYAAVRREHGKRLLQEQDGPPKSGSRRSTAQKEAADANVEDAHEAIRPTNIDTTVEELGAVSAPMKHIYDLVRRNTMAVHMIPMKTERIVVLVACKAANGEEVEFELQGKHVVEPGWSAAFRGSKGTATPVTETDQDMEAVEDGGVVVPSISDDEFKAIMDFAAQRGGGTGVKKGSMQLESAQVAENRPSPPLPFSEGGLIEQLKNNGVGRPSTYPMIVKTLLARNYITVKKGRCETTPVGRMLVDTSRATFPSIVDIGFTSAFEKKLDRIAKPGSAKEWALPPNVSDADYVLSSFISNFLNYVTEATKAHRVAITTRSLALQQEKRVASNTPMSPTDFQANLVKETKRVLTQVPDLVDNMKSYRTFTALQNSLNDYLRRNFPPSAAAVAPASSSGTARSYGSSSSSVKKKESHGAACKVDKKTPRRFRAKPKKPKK

[3] = target: T4, RNase H I, catalytically inactive D210N (Homo sapiens, UniProt O60930 1-286, D210N); test: fluorescence anisotropy; 30 nM duplex, 2-200 nM protein; 50 mM Tris pH 7.5, 100 mM NaCl, 0.5 mM DTT, 0.5 mM EDTA, 5% glycerol, 15 min, 25 °C (EMSA gel at 4 °C); conditions: protein: recombinant; tags: His (pET15b; Ni-NTA purified); label: 5' FAM on RNA strand; blunt
T4 sequence: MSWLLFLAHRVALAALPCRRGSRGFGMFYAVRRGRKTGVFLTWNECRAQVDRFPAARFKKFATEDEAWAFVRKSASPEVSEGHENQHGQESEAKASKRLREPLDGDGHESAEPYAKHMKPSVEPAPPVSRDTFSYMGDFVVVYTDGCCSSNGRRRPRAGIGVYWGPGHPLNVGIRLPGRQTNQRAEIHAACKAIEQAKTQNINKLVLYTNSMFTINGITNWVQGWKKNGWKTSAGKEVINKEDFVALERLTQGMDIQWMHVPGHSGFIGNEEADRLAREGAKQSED

[4] = target: T3, LdTOPIA (DNA topoisomerase IA); test: fluorescence anisotropy; 30 nM DNA, 0.5 mM EDTA; 50 mM Tris pH 7.5, 100 mM NaCl, 0.5 mM DTT, 0.5 mM EDTA, 5% glycerol, 15 min, 25 °C (EMSA gel at 4 °C); conditions: protein: recombinant, tags: N-term 7xHis, C-term 6xHis

CC[C@@]1(O)C(=O)OCc2c1cc1n(c2=O)Cc2cc3ccccc3nc2-1 [CPT, Camptothecin]
plasmid DNA relaxation assay with commercial human TOPIB, 10 μM drug (Fig. S3C) (Human TOPIB): Etoposide and CPT could effectively inhibit plasmid relaxation of the TOPIB and TOPII respectively (Fig. S3C)

CN(C)CCCN1c2ccccc2CCc2ccccc21 [imipramine]
plasmid DNA relaxation assay with purified LdTOPIA (10, 20 and 40 μM drug), agar [1]: Both imipramine and norclomipramine (NCL) could inhibit the DNA relaxation by LdTOPIA

B1: DNA:RNA duplex, FAM-RNA (DNA:RNA)
RNA: UAUUGGGCGCUCUUCCGCUUCCUCGCUCACUG
DNA: CAGTGAGCGAGGAAGCGGAAGAGCGCCCAATA
binding result [2]: no binding
binding result [3]: binds

TATTGGGCGCTCTTCCGCTTCCTCGCTCACTG (ssDNA) [32-nt ssDNA, FAM]
Kd ([4]; label: 5' FAM): 3.16 ± 0.12 nM

B2: 32-bp dsDNA, FAM (dsDNA)
DNA 1: TATTGGGCGCTCTTCCGCTTCCTCGCTCACTG
DNA 2: CAGTGAGCGAGGAAGCGGAAGAGCGCCCAATA
Kd ([4]; label: 5' FAM on strand 1, blunt): 8.1 ± 0.23 nM

From article PMC11021369, “Resolving the polycistronic aftermath: Essential role of topoisomerase IA in preventing R-loops in Leishmania” (The Journal of Biological Chemistry, 2024)
